According to patent US20060003399A1, “High throughput actin polymerization assay” (Cytokinetics, Inc., priority 2004, published 2006):

Key:
[1] = biological target: Arp2/3; assay: Activities of WASP/N-WASP proteins (Table 4); assay type: biochemical
Text: The term “variant” or “analogue” generally refers to proteins that are functional equivalents to a native sequence that have similar amino acid sequences and retain, to some extent, one of the activities of the corresponding native protein. Variants/analogues include fragments that retain one or more activities of the corresponding native protein. Examples of WASP and N-WASP activity include, but are not limited to, capacity to: 1) bind Arp2/3 and actin; 2) activate the actin nucleation activity of Arp2/3 (descriptions of assays to detect nucleation activity are provided below); 3) bind an upstream regulator; 4) be regulated by one or more upstream regulators, thereby rendering the WASP or N-WASP protein able to activate the nucleation activity of Arp2/3; and 5) bind downstream regulators initiating signal transduction cascades. Some of the WASP and N-WASP proteins that are provided are able to recapitulate the full activity of WASP or N-WASP, which means that these proteins have all five of the activities just listed. […]
A third class of NPF proteins that can be utilized in some assays include WASP, N-WASP and SCAR proteins that include the WH1 domain but in which the PolyPro region is (e.g., deleted). A fourth class of NPF proteins that can be utilized in some assays are WASP, N-WASP and SCAR deletion mutants in which the PolyPro region is maintained but an N-terminal region (e.g., WH1 domain) is at least partially removed. Some proteins in this class are ones that include the B, CRIB/GBD (WASP and N-WASP), PolyPro and VCA domains, but in which some or all of the WH1 has been removed. One specific example is 98N-WASP, which includes amino acids 98-501 of SEQ ID NO:4. Another specific example is the 105WASP protein, which includes amino acids 105-501 of SEQ ID NO:2 (see FIG. 4B).
As indicated in this table, specific examples of fusion proteins that can be utilized include those that include a segment that encodes full-length WASP or N-WASP, including: Myc-WASP-TAP (SEQ ID NO:14); and Myc-N-WASP-TAP (SEQ ID NO: 16). Examples of fusion proteins that include a WASP or N-WASP deletion mutant domain include: GST-105WASP (SEQ ID NO:18); Myc-105WASP-TAP (SEQ ID NO:20); GST-tev-98N-WASP (SEQ ID NO:22); and Myc-98N-WASP-TAP (SEQ ID NO:24). The TAP tag in these particular fusion proteins has the general structure CBP-tev-ProtA (SEQ ID NO:36). Fusion proteins such as those listed in Table 4 can in some instances be utilized directly, or after one or both of the C- and N-terminal tags are removed. For example, the fusion proteins listed in Table 4 as having a TAP tag can be used once the TAP tag has been cleaved off and/or after the C-terminal tag has been removed.

[2] = Solubility of purified full-length WASP / N-WASP; assay type: physicochemical; settings: purified TAP-tag protein from 293 cells
[3] = biological target: T1, Arp2/3 complex; assay: Actin polymerization assay comparing FL-WASP/N-WASP and truncated forms of WASP; assay type: biochemical, human
T1 construct: from tissue
Protocol: 1. A cellular extract containing Arp2/3 complex was prepared from an Arp2/3 source such as human platelets (see, e.g., U.S. Provisional Application No. 60/578,969, filed Jun. 10, 2004; Welch and Mitchison (Meth. Enzymology 298:52-61,1988); and Higgs, H. N. et al. (Biochemistry 38:15212-15222, 1999), all of which are incorporated herein by reference in their entirety for all purposes).
Samples containing candidate agents (individually or as mixtures) are placed into wells on a multi-well plate. Mix 1 is added to each of the wells and mixed with the candidate agent. A sample of Mix 2 is then introduced into each well and the resulting mixture thoroughly mixed. Typically, Mix 1 and Mix 2 are mixed in 1:1 ratio (e.g., 50 μl each of Mix 1 and Mix 2).
Actin polymerization is measured as a function of time by exciting pyrene at 365 nm and by detecting an increase in fluorescence emission at 407 nm, or by exciting acrylodan at 405 nm and by detecting an increase in fluorescence emission at 460 nm. The change in fluorescence over time is utilized to determine a fluorescence parameter (e.g., maximal velocity, time to half maximal fluorescence intensity, or area under the curve of a plot of fluorescence versus time; see e.g., FIGS. 5A-5F).
Arp2/3 was purified as described in Example 1.
In a second set of experiments, the ability of various truncated forms of WASP were compared to the activity of the full-length protein. […] FL-WASP, 105 WASP and the VCA (see Example 2) domain were tested. The results of these trials were plotted to obtain EC50 values. The results are provided in FIG. 8 and in the chart below.

[4] = system: PMA-treated THP-1 cells; assay: Macrophage podosome formation assay; assay type: cell-based, human; settings: FIG. 13
Protocol: Positive hits from the in vitro screening assays are tested for effects on macrophage podosome formation. Macrophages express Arp2/3 and WASP, the latter of which is required for podosome formation. A typical cell-based secondary assay of this type includes the human monocytic cell ine THP-1, which undergoes macrophage differentiation and podosome formation in response to exposure to the phorbol ester, phorbol-12-myristate-13-acetate (PMA) (50 nM). A nuclear stain and an actin stain are used to detect and quantify the number of podosomes/cell in the absence or presence of positive hits from the in vitro screening assays. An example of the use of this assay is provided in Example 14 and is illustrated in FIG. 13.
In this assay, positive hits from the in vitro screening assays are tested for effects on macrophage podosome formation. […] A nuclear stain and an actin stain are used to quantify the number of podosomes/cell in a culture of differentiated THP-1 cells in the absence or presence of positive hits from the in vitro screening assays. […]
Podosomes in the THP-1 cells were visualized using a nuclear stain and an actin stain as follows. […] The fraction of THP-1 cells positive for podosomes was quantified using Image Express software (Molecular Devices, Inc.). […]

## Myc-N-WASP-TAP: fusion protein of full-length N-WASP (SEQ ID NO:16)
[1]
  Activate Arp2/3?: Yes
  Regulated By Which Upstream Regulators?: Cdc42, PIP2, Nck and Rac1

## FL-WASP: full length human WASP (SEQ ID NO:2), nucleation promoting factor
[1]
  Activate Arp2/3?: Yes
  Regulated By Which Upstream Regulators?: Cdc42, PIP2, Nck and Rac1
[2]
  solubility (in words): completely soluble
[3]
  potency as Arp2/3 complex activator compared with truncated derivatives (in words): more potent Arp2/3 complex activator than certain truncated derivatives
[3]; 500 nM Cdc42, 2.5 nm Arp2/3 complex, 3.5 μM actin
  concentration that stimulated production of maximal concentration of barbed ends: 3 nM
[3]; 500 nM Cdc42, 2.5 nm Arp2/3 complex, 3.5 μM actin, FIG. 8
  activity of FL-WASP relative to 105 WASP: approximately 20 times
[3]; without activators, FIG. 7
  stimulation of actin polymerization by the protein alone (in words): weakly stimulate actin polymerization

## Myc-WASP-TAP: fusion protein of full-length WASP (SEQ ID NO:14)
[1]
  Activate Arp2/3?: Yes
  Regulated By Which Upstream Regulators?: Cdc42, PIP2, Nck and Rac1

## COC(=O)Nc1nc2ccc(C(=O)c3cccs3)cc2[nH]1 [nocodazole]
[4]
  podosome formation (fraction of THP-1 cells positive for podosomes), in words: prevented podosome formation in PMA-treated THP-1 cells in a dose-dependent manner

## N-WASP VCA Domain: VCA domain of N-WASP (SEQ ID NO:8)
[1]
  Activate Arp2/3?: Yes
  Regulated By Which Upstream Regulators?: None
